Reference: IntAct's records for PubMed 17937919

target: Ezh2, Q61188-1
Sequence (Q61188 whole entry): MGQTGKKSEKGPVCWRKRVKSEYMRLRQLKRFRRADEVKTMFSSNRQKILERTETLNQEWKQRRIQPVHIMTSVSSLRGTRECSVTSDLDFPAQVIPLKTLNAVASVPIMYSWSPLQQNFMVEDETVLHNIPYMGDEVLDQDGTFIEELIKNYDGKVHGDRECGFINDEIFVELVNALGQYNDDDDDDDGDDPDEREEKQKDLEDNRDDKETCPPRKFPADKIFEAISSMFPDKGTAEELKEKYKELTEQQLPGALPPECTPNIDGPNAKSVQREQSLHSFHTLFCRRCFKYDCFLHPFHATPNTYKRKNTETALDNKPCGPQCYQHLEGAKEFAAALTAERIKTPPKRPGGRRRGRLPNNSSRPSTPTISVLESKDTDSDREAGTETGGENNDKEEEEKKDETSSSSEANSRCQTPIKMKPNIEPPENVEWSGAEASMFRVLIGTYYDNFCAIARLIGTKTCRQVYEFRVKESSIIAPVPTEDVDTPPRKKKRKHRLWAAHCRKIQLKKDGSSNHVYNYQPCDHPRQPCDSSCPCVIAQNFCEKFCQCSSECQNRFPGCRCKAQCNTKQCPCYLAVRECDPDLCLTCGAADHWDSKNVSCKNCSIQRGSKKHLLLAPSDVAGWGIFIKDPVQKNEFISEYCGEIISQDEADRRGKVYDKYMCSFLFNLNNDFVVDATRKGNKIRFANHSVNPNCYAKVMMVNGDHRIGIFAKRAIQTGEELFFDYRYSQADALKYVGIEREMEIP

Polycomb protein EED (Mus musculus), Q921E6 L246E, sequence (Q921E6 whole entry L246E): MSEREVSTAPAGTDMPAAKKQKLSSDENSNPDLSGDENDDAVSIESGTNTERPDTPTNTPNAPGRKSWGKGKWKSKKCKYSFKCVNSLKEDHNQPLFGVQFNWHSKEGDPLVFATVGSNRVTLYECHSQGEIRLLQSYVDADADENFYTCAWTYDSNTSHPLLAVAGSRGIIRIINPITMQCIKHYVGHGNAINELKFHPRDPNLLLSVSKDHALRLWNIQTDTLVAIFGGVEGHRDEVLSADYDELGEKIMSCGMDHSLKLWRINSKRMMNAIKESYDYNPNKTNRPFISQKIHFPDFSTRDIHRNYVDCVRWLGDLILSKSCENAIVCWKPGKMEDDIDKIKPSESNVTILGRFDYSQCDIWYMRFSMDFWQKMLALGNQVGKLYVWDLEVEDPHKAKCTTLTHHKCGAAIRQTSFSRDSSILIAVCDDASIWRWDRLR

| Substance | effect of a mutation on the interaction |
| --- | --- |
| Polycomb protein EED (Mus musculus), Q921E6 L246E | disrupting interaction |

target: eed_mouse Eed (UniProt Q921E6)
Sequence (Q921E6 whole entry, looked up): as the sequence (Q921E6 whole entry L246E) above, with E246L counted along it

| Substance | effect of a mutation on the interaction |
| --- | --- |
| Histone-lysine N-methyltransferase EZH2 (Mus musculus), Q61188-1 F42D | disrupting interaction |
| Histone-lysine N-methyltransferase EZH2 (Mus musculus), Q61188-1 I49E | disrupting interaction |
| Histone-lysine N-methyltransferase EZH2 (Mus musculus), Q61188-1 L56E | disrupting interaction |
| Histone-lysine N-methyltransferase EZH2 (Mus musculus), Q61188-1 N45A | disrupting interaction |
| Histone-lysine N-methyltransferase EZH2 (Mus musculus), Q61188-1 P67D | disrupting interaction |
